{"source": "paper PMC12645976", "about": "“ARGLU1 is a negative regulator of the adenoviral replicative cycle” (Journal of Virology, 2025)", "binders": {"B1": {"name": "GST-ARGLU1 (human ARGLU1, GST-tagged fusion protein) (natural protein, UniProt Q9NWB6 1-273, looked up)", "chain": "MGRSRSRSSSRSKHTKSSKHNKKRSRSRSRSRDKERVRKRSKSRESKRNRRRESRSRSRSTNTAVSRRERDRERASSPPDRIDIFGRTVSKRSSLDEKQKREEEEKKAEFERQRKIRQQEIEEKLIEEETARRVEELVAKRVEEELEKRKDEIEREVLRRVEEAKRIMEKQLLEELERQRQAELAAQKAREEEERAKREELERILEENNRKIAEAQAKLAEEQLRIVEEQRKIHEERMKLEQERQRQQKEEQKIILGKGKSRPKLSFSLKTQD", "notes": "Arginine and glutamate-rich protein 1 (ARGLU1), human; also called Arginine and glutamate-rich protein 1; source: E. coli BL21 (DE3)-CodonPlus RIPL, purified (glutathione Sepharose, eluted with reduced glutathione, dialyzed)"}}, "target": "T1, 6xHis-E1A289R (HAdV5 E1A289R, 6xHis-tagged fusion protein) (human adenovirus 5 (HAdV5), UniProt P03255 1-289)", "T1 construct": "Early protein 1A (E1A) of human adenovirus 5 (HAdV5), the 289R product (289 residues by its name); also called Early protein 1A", "T1 sequence (P03255 whole entry, the tested form may be a part)": "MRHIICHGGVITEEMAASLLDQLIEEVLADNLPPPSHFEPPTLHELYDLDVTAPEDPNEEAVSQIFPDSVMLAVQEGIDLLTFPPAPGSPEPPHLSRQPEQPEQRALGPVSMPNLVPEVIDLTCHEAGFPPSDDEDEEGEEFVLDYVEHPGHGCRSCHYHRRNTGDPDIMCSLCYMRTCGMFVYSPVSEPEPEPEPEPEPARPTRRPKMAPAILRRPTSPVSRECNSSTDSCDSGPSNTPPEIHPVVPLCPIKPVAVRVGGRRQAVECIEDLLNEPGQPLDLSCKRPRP", "experiment": "pull-down; GST-ARGLU1 or GST mixed with 6xHis-E1A289R, captured on glutathione beads; 1 µg of each protein; western blot with M73 and M2 monoclonal E1A antibodies; glutathione beads alone as negative control", "conditions": "both partners purified", "data": [{"binder": "B1", "values": [{"measurement": "binding result", "result": "binds"}]}]}
